Test results: patent US20160251695

T1: α-fructosyl-valyl-histidyl-leucyl-threonyl-proryl-glutamic acid
T1 chain: VHLTPE

T2: α-fructosyl-valyl-histidine
T2 chain: VH


Experiments:
[1] = biological target: hemoglobin A1c, P68871
[2] = biological target: T1, α-fructosyl-valyl-histidyl-leucyl-threon …; conditions: for αF6P oxidation activity: scale: relative value
[3] = biological target: T2, α-fructosyl-valyl-histidine

Sequence of hemoglobin A1c, P68871 (P68871 2-147, chain 1 of 2): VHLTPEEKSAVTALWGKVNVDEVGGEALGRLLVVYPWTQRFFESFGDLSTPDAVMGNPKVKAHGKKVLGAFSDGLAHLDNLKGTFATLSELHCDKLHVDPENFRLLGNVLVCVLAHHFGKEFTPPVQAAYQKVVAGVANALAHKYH
Sequence of hemoglobin A1c, P68871 (chain, as listed by the source, chain 2 of 2): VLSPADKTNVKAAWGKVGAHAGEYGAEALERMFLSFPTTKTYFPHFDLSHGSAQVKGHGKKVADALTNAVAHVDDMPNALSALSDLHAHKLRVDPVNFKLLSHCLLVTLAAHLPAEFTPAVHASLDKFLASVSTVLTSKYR

Protein	Specific activity (U/mg), 1 mM αF6P [2] [U/mg]	αF6P oxidation activity [2]	Specific activity (U/mg), 1 mM αFVH [3] [U/mg]	other results
CFP-T7 (protein) MTSNRADTRVIVVGGGGTIGSSTALHLVRSGYAPANITVLDTFEIPSAQSAGHDLNKIMGIRLRNKVDLQMSLEARQMWKEDELFQPFFHNTGRMDCEHTPEGIEDLKKQYQALHDAGAGLEKTHAWLDNEDEILSKMPLLQRDQIQGWKAIWSQDGGWLAAAKAINAIGQFLKERGVKFGFGGAGSFKQPLFDDEGTTCIGVETADGTKYYADKVVLAAGAWSPTLVDLEDQCCSKAWVYAHIQLTPEEAAEYKGVPVVYNGEFGFFFEPDEFGVIKVCDEFPGFSRFKEHQPYGAPSPKRISVPRSHAKHPTDTYPDASEVSIKKAIATFLPRFQDKELFNRALCWCTDTADAALLMCEHPKWKNFILATGDSGHSFKILPNVGKYVVELIEGRLPEEMAYQWRWRPGGDALKSRRAAPPKDLADMPGWKHDPKL	0	0	16.5	ΔA at 751 nm (hydrogen peroxide generated upon oxidation of the HbA1c β-chain amino terminus) against HbA1c concentration; heat-treated sample [1]: When Reagent C2 was used, however, no correlation was observed between the HbA1c concentration and ΔA; αFVH oxidation activity [3]: CFP-T7 exhibited αFV oxidation activity and αFVH oxidation activity
CFP-T7-H20 (protein) MTSNRADTRVIVVGGGGTIGSSTALHLVRSGYAPANITVLDTFEIPSAQSAGHDLNKIMGIDLRNKVDLQMSLEARQMWKEDELFQPFFHNTGRMDCEHTPEGIEKLKKLYQKLHDAGAGLEKTHAWLDNEDEILSKMPLLQRDQIQGWKAIWSQDGGWLAAAKAINAIGQFLKERGVKFGFGGAGSFKQPLFDDEGTTCIGVETADGTKYYADKVVLAAGAWSPTLVDLEDQCCSKAWVYAHIQLTPEEAAEYKGVPVVYNGEFGFFFEPDEFGVIKVCDEFPGFSRFKEHQPYGAPSPKRISVPRSHAKHPTDTYPDASEVSIKKAIATFLPRFQDKELFNRALCWCTDTADAALLMCEHPKWKNFILATGDSGHSFKILPNVGKYVVELIEGRLPEEMAYQWRWRPGGDALKSRRAAPPKDLADMPGWKHDPKL	0.85	20.5	4.28	αF6P oxidation activity ratio (relative value (CFP-T7-H20 = 100)) [2]: 100
CFP-T7-62D (protein) MTSNRADTRVIVVGGGGTIGSSTALHLVRSGYAPANITVLDTFEIPSAQSAGHDLNKIMGIDLRNKVDLQMSLEARQMWKEDELFQPFFHNTGRMDCEHTPEGIEDLKKQYQALHDAGAGLEKTHAWLDNEDEILSKMPLLQRDQIQGWKAIWSQDGGWLAAAKAINAIGQFLKERGVKFGFGGAGSFKQPLFDDEGTTCIGVETADGTKYYADKVVLAAGAWSPTLVDLEDQCCSKAWVYAHIQLTPEEAAEYKGVPVVYNGEFGFFFEPDEFGVIKVCDEFPGFSRFKEHQPYGAPSPKRISVPRSHAKHPTDTYPDASEVSIKKAIATFLPRFQDKELFNRALCWCTDTADAALLMCEHPKWKNFILATGDSGHSFKILPNVGKYVVELIEGRLPEEMAYQWRWRPGGDALKSRRAAPPKDLADMPGWKHDPKL	0.018	–	1.62	specific activity on αF6P, fold over PnFX (Comparative Example 3) [2]: 2 times (Amadoriase 26/Comparative Example 3)
CFP-T7-H21 (protein) MTSNRADTRVIVVGGGGTIGSSTALHLVRSGYAPANITVLDTFEIPSAQSAGHDLNKIMGIDLRNKVDLQMSLEARQMWKEDELFQPFFHNTGRMDCEHTPEGIEKLKKLYQRLHDAGAGLEKTHAWLDNEDEILSKMPLLQRDQIQGWKAIWSQDGGWLAAAKAINAIGQFLKERGVKFGFGGAGSFKQPLFDDEGTTCIGVETADGTKYYADKVVLAAGAWSPTLVDLEDQCCSKAWVYAHIQLTPEEAAEYKGVPVVYNGEFGFFFEPDEFGVIKVCDEFPGFSRFKEHQPYGAPSPKRISVPRSHAKHPTDTYPDASEVSIKKAIATFLPRFQDKELFNRALCWCTDTADAALLMCEHPKWKNFILATGDSGHSFKILPNVGKYVVELIEGRLPEEMAYQWRWRPGGDALKSRRAAPPKDLADMPGWKHDPKL	0.795	20.8	4.05	–
CFP-T7-H35 (protein) MTSNRADTRVIVVGGGGTIGSSTALHLVRSGYAPANITVLDTFEIPSAQSAGHDLNKIMGIDHRNKVDLQMSLEARQMWKEDELFQPFFHNTGRMDCEHTPKGIEKLKKLYQKLHDAGAGLEKTHAWLDNEDEILSKMPLLQRDQIQGWKAIWSQDGGWLAAAKAINAIGQFLKERGVKFGFGGAGSFKQPLFDDEGTTCIGVETADGTKYYADKVVLAAGAWSPTLVDLEDQCCSKAWVYAHIQLTPEEAAEYKGVPVVYNGEFGFFFEPDEFGVIKVCDEFPGFSRFKEHQPYGAPSPKRISVPRSHAKHPTDTYPDASEVSIKKAIATFLPRFQDKELFNRALCWCTDTADSALLMCEHPKWKNFILATGDSGHSFKILPNVGKYVVELIEGRLPEEMAYQWRWRPGGDALKSRRAAPPKDLADMPGWKHDPKL	4.27	–	1.9	ΔA at 751 nm (hydrogen peroxide generated upon oxidation of the HbA1c β-chain amino terminus) against HbA1c concentration; heat-treated sample [1]: When Reagent C1 was used, a good correlation was established between the HbA1c concentration and ΔA; ΔA at 751 nm against HbA1c concentration; acid-treated sample (Reagent D1 or D2, Reagent F1) [1]: In both cases where the sample was diluted with either Reagent D1 or Reagent D2, a good correlation was established between the HbA1c concentration and ΔA; specific activity on αF6P, fold over FAOAo2 (Comparative Example 2) [2]: 1.940 times (Amadoriase 25/Comparative Example 2); αF6P oxidation activity ratio (relative value (CFP-T7-H28 = 100)) [2]: 206
CFP-T7-H1 (protein) MTSNRADTRVIVVGGGGTIGSSTALHLVRSGYAPANITVLDTFEIPSAQSAGHDLNKIMGIALRNKVDLQMSLEARQMWKEDELFQPFFHNTGRMDCEHTPEGIEDLKKQYQALHDAGAGLEKTHAWLDNEDEILSKMPLLQRDQIQGWKAIWSQDGGWLAAAKAINAIGQFLKERGVKFGFGGAGSFKQPLFDDEGTTCIGVETADGTKYYADKVVLAAGAWSPTLVDLEDQCCSKAWVYAHIQLTPEEAAEYKGVPVVYNGEFGFFFEPDEFGVIKVCDEFPGFSRFKEHQPYGAPSPKRISVPRSHAKHPTDTYPDASEVSIKKAIATFLPRFQDKELFNRALCWCTDTADAALLMCEHPKWKNFILATGDSGHSFKILPNVGKYVVELIEGRLPEEMAYQWRWRPGGDALKSRRAAPPKDLADMPGWKHDPKL	–	0.0316	–	αFVH oxidation activity [3]: exhibited αF6P oxidation activity, in addition αFV oxidation activity and αFVH oxidation activity
CFP-T7-H4 (protein) MTSNRADTRVIVVGGGGTIGSSTALHLVRSGYAPANITVLDTFEIPSAQSAGHDLNKIMGIALRNKVDLQMSLEARQMWKEDELFQPFFHNTGRMDCEHTPEGIEDLKKYYQALHDAGAGLEKTHAWLDNEDEILSKMPLLQRDQIQGWKAIWSQDGGWLAAAKAINAIGQFLKERGVKFGFGGAGSFKQPLFDDEGTTCIGVETADGTKYYADKVVLAAGAWSPTLVDLEDQCCSKAWVYAHIQLTPEEAAEYKGVPVVYNGEFGFFFEPDEFGVIKVCDEFPGFSRFKEHQPYGAPSPKRISVPRSHAKHPTDTYPDASEVSIKKAIATFLPRFQDKELFNRALCWCTDTADAALLMCEHPKWKNFILATGDSGHSFKILPNVGKYVVELIEGRLPEEMAYQWRWRPGGDALKSRRAAPPKDLADMPGWKHDPKL	–	0.0341	–	–
CFP-DH2 (protein) MTSNRADTRVIVVGGGGTIGSSTALHLVRSGYAPANITVLDTFPIPSAQSAGHDLNKIMGIDHRNKVNLQMSLEARQMWKEDELFQPFFHNTGRMDCEHTPKGIEKLKKLYQKLHDAGAGLEKTHAWLDNEDAILSKMPLLQRDQIQGWKAIWSQDGGWLAAAKAINAIGQFLKERGVKFGFGGAGSFKQPLFDDEGTTCIGVETADGTKYYADKVVLAAGAWSPTLVDLEDQCCSKAWVYAHIQLTPEEAAKYKGCPVVYHGEFGFFFEPDEFGVIKVCDEFPGFSRFKEHQPYGAPSPKRISVPRSHAKHPTDTYPDASEVSIKKAIATFLPRFKDKPLFNRALCWCTDTADSTLLMCEHPKWKNFILATGDSGHSFKILPNVGKYVVELIEGRLPEEMAYQWRWRPGGDALKSRRAAPPKDLADMPGWKHD	5.3	–	–	ΔA at 751 nm against HbA1c concentration; cationic-surfactant-treated sample (Reagent G1 or G2) [1]: In both cases where the sample was diluted with either Reagent G1 or Reagent G2, a good correlation was established between the HbA1c concentration and ΔA
EFP-T5-62D/63H/106K/110L/113K/355S (protein) MAHSRASTKVVVVGGGGTIGSSTALHLIRSGYTPSNITVLDVYKTPSLQSAGHDLNKIMGIDHRNGPDLQLSLESLDMWQNDELFKPFFHQVGMIDCSSSKEGIEKLRRLYQKLLDAGIGLEKTNVWLESEDEILAKAPNFTREQVKGWKGLFCTDGGWLAAAKAINAIGIFLQDKGVKFGFGDAGTFQQPLFAADGKTCIGLETTDGTKYFADKVVLAAGAWSPTLVDLEDQCVSKAWVFAHIQLTPKEADAYKNVPVVYDGEYGFFFEPDEYGVIKVCDEFPGFSRFKLHQPYGAASPKMISVPRSHAKHPTDTYPDASEVTIRKAIARFLPEFKDKELFNRTMCWCTDTADSNLLICEHPKWKNFILATGDSGHSFKLLPNIGKYVVELLEGSLSQEMAGAWRWRPGGDALRSRRGAPAKDLAEMPGWKHDAHL	1.12	–	–	ΔA at 751 nm against HbA1c concentration; acid-treated sample (Reagent D1, Reagent F2) [1]: Amadoriase 28 from EFP-T5 exhibiting high specific activity on αF6P was also found to act directly on HbA1c (FIG. 6-3)
